Results: patent US20070110747A1 (Amgen, published 2007)

T1: human sclerostin, mature form (signal peptide removed) (human, UniProt Q9BQB4 24-213)
T1 construct: 190 amino acid glycoprotein; also called SOST; recombinant human sclerostin
T1 sequence: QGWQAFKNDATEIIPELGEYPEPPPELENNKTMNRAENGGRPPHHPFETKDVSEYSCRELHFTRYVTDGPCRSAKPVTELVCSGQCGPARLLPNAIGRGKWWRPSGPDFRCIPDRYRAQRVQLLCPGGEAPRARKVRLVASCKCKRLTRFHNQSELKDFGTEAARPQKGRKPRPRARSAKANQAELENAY

T2: rat sclerostin peptide KWWRPNGPDFRCIPDRYRAQRV (rat)
T2 construct: Coupled to the plate through its cysteine
T2 peptide: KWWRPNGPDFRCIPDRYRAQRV


What was measured:
[1] = target: T1, human sclerostin, mature form (signal …); assay: Biacore cross-blocking on immobilised human sclerostin; RU of 1:1 mixture, competitor Ab-19
Description: (§1) The antibodies to be tested were diluted to a concentration of 200 ug/ml in HBS-EP buffer (being 10 mM HEPES pH 7.4, 150 mM NaCl, 3 mM EDTA, 0.005% (v/v) Surfactant P20) and then mixed in a one to one molar ratio (on a binding site basis) to generate the test mixture. This test mixture thus contained each antibody at a concentration of 100 ug/ml (1.3 um on a binding site basis). Separate solutions containing each of the antibodies in the test mix alone were also prepared. These solutions contained the individual antibodies in HBS-EP buffer at a concentration of 100 ug/ml (1.3 um on a binding site basis).
(§2) 20 μL of the test mixture was passed over the sclerostin-coated chip at a flow rate of 10 μL/min and the amount of binding recorded. The chip was then treated with two 60 second pulses of 30 mM HCl to remove all of the bound antibody. A solution containing only one of the antibodies of the test mixture (at 1.3 μM in the same buffer as the test mixture on a binding site basis) was then passed over the chip in the same manner as the test mixture and the amount of binding recorded. The chip was again treated to remove all of the bound antibody and finally a solution containing the other antibody from the test mixture alone (at 1.3 μM in the same buffer as the test mixture on a binding site basis) was passed over the chip and the amount of binding recorded.
(§3) The table below show the results from cross-blocking assays on a range of different antibodies. The values in each square of the table represent the amount of binding (in RU) seen when the antibodies (at 1.3 μM on a binding site basis) or buffer indicated in the top row of the table were mixed with the antibodies (at 1.3 uM on a binding site basis) or buffer indicated in the first column of the table.

[2] = target: T1, human sclerostin, mature form (signal …); assay: Biacore cross-blocking on immobilised human sclerostin; RU of 1:1 mixture, competitor Ab-13
Description: as §1, §2, §3

[3] = target: T1, human sclerostin, mature form (signal …); assay: Biacore cross-blocking on immobilised human sclerostin; RU of 1:1 mixture, competitor Ab-A
Description: as §1, §2, §3

[4] = target: T1, human sclerostin, mature form (signal …); assay: Biacore cross-blocking on immobilised human sclerostin; RU of 1:1 mixture, competitor Ab-4
Description: as §1, §2, §3

[5] = target: T1, human sclerostin, mature form (signal …); assay: Biacore cross-blocking on immobilised human sclerostin; RU of 1:1 mixture, competitor Ab-3
Description: as §1, §2, §3

[6] = target: T2, rat sclerostin peptide …; assay: ELISA on rat sclerostin peptides coupled to sulfhydryl binding plates, antibody at 1 ug/ml
Description: A series of overlapping peptides (each peptide being approximately 20-25 amino acids long) were synthesized based on the known amino acid sequence of rat sclerostin (SEQ ID NO:98). […] This enabled the peptides to be bound to the assay plates by covalent coupling, using commercially available sulfhydryl binding plates (Costar), at a concentration of […], in phosphate buffered saline (PBS: pH 6.5) containing 1 mM EDTA. Following incubation for 1 hour at room temperature, the plates were washed three times with PBS containing 0.5% Tween 20. The plates were blocked by incubation with a PBS solution containing 0.5% fish skin gelatin (Sigma) for 30 minutes at room temperature and then washed three times in PBS containing 0.5% Tween 20.
Antibodies to be tested were diluted to 1 μg/ml in PBS containing 0.5% fish skin gelatin and incubated with the peptide-coated plates for 1 hour at room temperature. Excess antibody was removed by three washes with PBS, 0.5% Tween 20. […] Finally the plates were incubated with a horseradish peroxidase chromogenic substrate (TMB-Stable Stop, RDI) for 5 minutes at room temperature, the color development was stopped with acid, and the plates' optical density measured at 450 nm.

Binder | binding (RU) [1] [RU] | binding (RU) [2] [RU] | binding (RU) [3] [RU] | binding (RU) [4] [RU] | binding (RU) [5] [RU] | binding result [6]
Antibody 3 (antibody, mouse IgG1, kappa, also called Ab-3) light: EIVLTQSPALMAASPGEKVTITCSVSSTISSNHLHWFQQKSDTSPKPWIYGTSNLASGVPVRFSGSGSGTSYSLTISSMEAEDAATYYCQQWSSYPLTFGAGTKLELRRADAAPTVSIFPPSSEQLTSGGASVVCFLNNFYPKDINVKWKIDGSERQNGVLNSWTDQDSKDSTYSMSSTLTLTKDEYERHNSYTCEATHKTSTSPIVKSFNRNEC heavy: EVQLQQSGAELVRPGALVKLSCTASDFNIKDFYLHWMRQRPEQGLDWIGRIDPENGDTLYDPKFQDKATLTTDTSSNTAYLQLSGLTSETTAVYYCSREADYFHDGTSYWYFDVWGAGTTITVSSAKTTPPSVYPLAPGSAAQTNSMVTLGCLVKGYFPEPVTVTWNSGSLSSGVHTFPAVLQSDLYTLSSSVTVPSSTWPSETVTCNVAHPASSTKVDKKIVPRDCGCKPCICTVPEVSSVFIFPPKPKDVLTITLTPKVTCVVVDISKDDPEVQFSWFVDDVEVHTAQTQPREEQFNSTFRSVSELPIMHQDWLNGKEFKCRVNSAAFPAPIEKTISKTKGRPKAPQVYTIPPPKEQMAKDKVSLTCMITDFFPEDITVEWQWNGQPAENYKNTQPIMDTDGSYFIYSKLNVQKSNWEAGNTFTCSVLHEGLHNHHTEKSLSHSPGK | 896 | 428 | 952 | 845 | – | –
Antibody 4 (antibody, mouse IgG1, kappa, V domains shown, also called Ab-4) VH: EVQLQQSGPELMKPGASVKMSCKASGYTFTDYNMHWVKQNQGKTLEWIGEINPNSGGAGYNQKFKGKATLTVDKSSTTAYMELRSLTSEDSAVYYCARLGYDDIYDDWYFDVWGAGTTVTVSS VL: DIQMTQITSSLSASLGDRVSISCRASQDISNYLNWYQQKPDGTFKLLIFYTSRLLSGVPSRFSGSGSGTDYSLTIYNLEQEDFATYFCQQGDTLPYTFGGGTKLEIKR | 822 | 1020 | 860 | – | 869 | –
Antibody 13 (antibody, mouse IgG1, kappa, V domains shown, … = EVQ); also called Ab-13) VH: EVQLQQSGPELVKPGASVKMSCKASGYTFTDYYMNWVKQSHGESLEWIGDINPYNDDTTYNHKFKGKATLTVDKSSNTAYMQLNSLTSEDSAVYYCARETAVITTNAMDYWGQGTSVTVSS VL: QIVLTQSPAIMSASPGEKVTMTCRASSSVTSSYLNWYQQKPGSSPKLWIYSTSNLASGVPARFSGSGSGTSYSLTISSVEAEDAATYYCQQYDFFPSTFGGGTKLEIKR | 1040 | – | 1110 | 1010 | 432 | –

Other lines, results leading:

binding (RU) [1] [RU] | binding (RU) [2] [RU] | binding (RU) [3] [RU] | binding (RU) [4] [RU] | binding (RU) [5] [RU] | binding result [6] | Binder
868 | 1080 | – | 833 | 946 | – | Antibody A (antibody, mouse IgG1, kappa, V domains shown, Rabbit-mouse chimeric antibody; mature chains (signal peptides cleaved off); also called Ab-A; Mab-A) VH: QSLEESGGRLVTPGTPLTLTCTASGFSLSSYWMNWVRQAPGEGLEWIGTIDSGGRTDYASWAKGRFTISRTSTTMDLKMTSLTTGDTARYFCARNWNLWGQGTLVTVSS VL: AQVLTQTPASVSAAVGGTVTINCQSSQSVYDNNWLAWFQQKPGQPPKLLIYDASDLASGVPSRFSGSGSGTQFTLTISGVQCADAATYYCQGAYNDVIYAFGGGTEVVVKR
– | 1020 | 863 | 789 | 892 | binds | Antibody 19 (antibody, V domains shown, also called Ab-19) VH: EVQLQQSGPELVKPGASVKMSCKASGFTFTDYIMHWVKQKPGQGLEWIGYINPYNDDTEYNEKFKGKATLTSDKSSSTAYMDLSSLTSEGSAVYYCARSIYYYDAPFAYWGQGTLVTVSS VL: DIQMTQTTSSLSASLGDRVNISCRASQDISSYLNWYQQKPDGTVKLLIYSTSRLNSGVPSRFSGSGSGTDYSLTISNLAQEDIATYFCQQDIKHPTFGGGTKLELKR
